B1: ALB408-413 (peptide)
peptide: LVRYTK
notes: Synthetic fragment of human serum albumin
B2: ALB408-423 (peptide)
peptide: LVRYTKKVPQVSTPTL
notes: also called Human circulating antiviral albumin fragment; wild type peptide

Columns and labels:
EGFP-hCXCR4 [1] = molecular target: T1, EGFP-hCXCR4 (human, UniProt P61073 1-352); assay: competition with CXCL12-Tr on CXCR4 expressing HEK293 cells, FRET
Description: (§1) The CXCR4 receptor is stably transfected in Human Embryonic Kidney (HEK) cells as a fusion protein with the EGFP fluorescent protein fused to the extracellular amino-terminal part of the receptor (EGFP-CXCR4). The human chemokines CXCL12 and CXCL12-TexasRed were synthesized as described (Amara et al., 1999, JBC 274:23916-23925; Valenzuela-Fernandez, et al., 2001, JBC 276:26550-26558). Real-time fluorescence monitoring of ligand-receptor interactions was performed as followed: HEK293 cells expressing the fusion receptor, EGFP-hCXCR4, were harvested in phosphate-buffered saline supplemented with 5 mM EDTA, pH 7.4, centrifuged and resuspended in HEPES-bovine serum albumin buffer (10 mM HEPES, 137.5 mM NaCl, 1.25 mM MgCl2, 1.25 mM CaCl2, 6 mM KCl, 10 mM glucose, 0.4 mM NaH2PO4, 1% bovine serum albumin (w/v), pH 7.4) supplemented with protease inhibitors (40 μg/mL bestatin and bacitracin, 20 μg/mL phosphoramidon, 50 μg/mL chymostatin, and 1 μg/mL leupeptin). […] Time-based recordings of the fluorescence emitted at 510 nm (excitation at 470 nm) were performed at 21° C. using a spectrofluorimeter (fluorolog 2, Spex) and sampled every 0.3 s. Fluorescence binding measurements were initiated by adding at 30 seconds 100 nM of CXCL12-TR to 1 mL cell suspension. […] Then, CXCL12-TR (100 nM) was added and fluorescence was recorded until equilibrium was reached (300 sec). […]

CXCR4 = CXCR4 (UniProt P61073 1-352, limits assumed); assay: cell-based or functional assay
EGFP-hCXCR4 [2] = molecular target: T1, EGFP-hCXCR4; assay: competition with 100 nM CXCL12-TR on HEK293 cells expressing EGFP-hCXCR4, FRET
Description: as §1

T1 sequence (P61073 whole entry, the tested form may be a part): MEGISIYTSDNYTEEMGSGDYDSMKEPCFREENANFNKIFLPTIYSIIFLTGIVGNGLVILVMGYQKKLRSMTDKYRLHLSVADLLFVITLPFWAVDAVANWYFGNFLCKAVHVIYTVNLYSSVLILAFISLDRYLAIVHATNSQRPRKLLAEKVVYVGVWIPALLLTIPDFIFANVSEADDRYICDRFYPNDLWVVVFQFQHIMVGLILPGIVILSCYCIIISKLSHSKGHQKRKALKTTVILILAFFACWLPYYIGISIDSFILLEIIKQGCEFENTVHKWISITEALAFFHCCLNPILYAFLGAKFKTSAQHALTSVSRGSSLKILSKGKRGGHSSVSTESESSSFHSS

Binder | Kd (EGFP-hCXCR4 [1]) | IC50, HIV-1 NL4-3 infection of TZM-bl cells (fraction 31 from hemofiltrate) (CXCR4) | IC50, X4 tropic HIV-1 and HIV-2 infection of TZM-bl cells (CXCR4) | mean IC50, infection of TZM-bl cells by X4-tropic HIV-1 variants (CXCR4) | EC50 (EGFP-hCXCR4 [2]) | Ki (EGFP-hCXCR4 [2])
B1 | > 200 µM | – | – | – | – | –
B2 | – | 21.4 µg/mL | 10 to 20 µM | 24.2 µg/mL | 8 µM | 3 µM

Reference: US20130029902A1 (PHARIS BIOTECH, published 2013)
